Patent US6815532B2, “ATR-2 cell cycle checkpoint” (ICOS Corporation, priority 1999, dated 2004)

Tests used:
Type in all cases: biochemical
Atr-2 protein = molecular target: T1, Atr-2 protein (Homo sapiens, UniProt Q96Q15); experiment: ATR-2 kinase assay, autophosphorylation (immunoprecipitated FLAG-tagged Atr-2 fragment from 293T cells, 32P-ATP, P81 paper); settings: immunoprecipitate from transfected 293T cells, 30° C. for 30 min
T1 construct: a region containing the putative kinase domain was subcloned into the mammalian expression vector, pCIneo; made in house; host or cells: 293T cells (transient transfection, anti-FLAG M2 immunoprecipitate on protein A beads)
Protocol: (§1) After 48 hr, cells were harvested and lysed in 0.5 ml lysis buffer (Example 6), and the lysates were precleared by incubation with 50 μl protein A beads for 2 hr at 4° C. The supernatant was immunoprecipitated with 6 μg anti-M2 antibody for one hr at 4° C. and the sample was divided into five aliquots. One hundred μl of the mixture was combined with 10 μl protein A beads for three hr at 4° C., after which the beads were washed twice with lysis buffer and three times in kinase buffer containing 10 mM HEPES, pH 7.4, 10 mM MnCl2, 50 mM NaCl, 10 mM MgCl2, and 5 mM DTT.
(§2) In the kinase assay, 10 μl protein A beads was mixed with 10 μl PKA and PKC inhibitors from a p79^S6 kinase assay kit (Upstate Biotechnology Inc., Lake Placid, N.Y.) and 10 μl ATP mixture: containing kinase buffer (above) with 10 mM ATP, 3 μCi ^32P-ATP, plus or minus 6 μl myelin basic protein as substrate. Reactions were incubated at 30° C. for 30 min and 20 μl of the reaction mixture was spotted onto P81 paper. The P81 paper was washed three times in 150 mM phosphoric acid and dried, and Cerenkov radiation measured.

histone H1 = experiment: ATR-2 kinase assay with substrate histone H1
myelin basic protein = experiment: ATR-2 kinase assay with exogenous substrate myelin basic protein; settings: immunoprecipitate from transfected 293T cells, 30° C. for 30 min, 32P-ATP
Protocol: as §1, §2

PHAS-1 = experiment: ATR-2 kinase assay with substrate PHAS-1

B1: 73 kDa Atr-2 truncated protein: FLAG-tagged truncated human Atr-2 containing the putative kinase domain, expressed from pCIneoFLAGATR2 in 293T cells (protein)
chain: MLVAELRRVTVLWDELWLGVLLQQHMYVLRRIQQLEDEVKRVQNNNTLRKEEKIAIMREKHTALMKPIVFALEHVRSITAAPAETPHEKWFQDNYGDAIENALEKLKTPLNPAKPGSSWIPFKEIMLSLQQRAQKRASYILRLEEISPWLAAMTNTEIALPGEVSARDTVTIHSVGGTITILPTKTKPKKLLFLGSDGKSYPYLFKGLEDLHLDERIMQFLSIVNTMFATINRQETPRFHARHYSVTPLGTRSGLIQWVDGATPLFGLYKRWQQREAALQAQKAQDSYQTPQNPGIVPRPSELYYSKIGPALKTVGLSLDVSRRDWPLHVMKAVLEELMEATPPNLLAKELWSSCTTPDEWWRVTQSYARSTAVMSMVGYIIGLGDRHLDNVLIDMTTGEVVHIDYNVCFEKGKSLRVPEKVPFRMTQNIETALGVTGVEGVFRLSCEQVLHIMRRGRETLLTLLEAFVYDPLVDWTAGGEAGFAGAVYGGGGQQAESKQSKREMEREITRSLFSSRVAEIKVNWFKNRDEMLVVLPKLDGSLDEYLSLQEQLTDVEKLQGKLLEEIEFLEGAEGVDHPSHTLQHRYSEHTQLQTQQRAVQEAIQVKLNEFEQWITHYQAAFNNLEATQLASLLQEISTQMDLGPPSYVPA
modifications: left off: small tags and cut ends
notes: FLAG-tagged truncated human Atr-2 containing the putative kinase domain, expressed from pCIneoFLAGATR2 in 293T cells
kinase activity: phosphorylation of the Atr-2 protein itself (Atr-2 protein): able to phosphorylate
kinase activity: phosphorylation of histone H1 (histone H1): did not phosphorylate
kinase activity: phosphorylation of exogenous myelin basic protein substrate (myelin basic protein): able to phosphorylate
kinase activity: phosphorylation of PHAS-1 (PHAS-1): did not phosphorylate
